# Changes are numbered by the printed parent chain. Numbers in names are those of the source.
# B1: Cpl-1 DNP→AAA (enzyme, bacteriophage Cp-1, UniProt P15057 1-339, looked up)
# chain: MVKKNDLFVDVSSHNGYDITGILEQMGTTNTIIKISESTTYLNPCLSAQVEQSNPIGFYHFARFGGDVAEAEREAQFFLDNVPMQVKYLVLDYEDDPSGDAQANTNACLRFMQMIADAGYKPIYYSYKPFTHDNVDYQQILAQFPNSLWIAGYGLNDGTANFEYFPSMDGIRWWQYSSNPFDKNIVLLDDEEDDKPKTAGTWKQDSKGWWFRRNNGSFPYNKWEKIGGVWYYFDSKGYCLTSEWLKDNEKWYYLKDNGAMATGWVLVGSEWYYMDDSGAMVTGWVKYKNNWYYMTNERGNMVSNEFIKSGKGWYFMNTNGELAAAASFTKEPDGLITVA
# B2: Cpl-1 W210A (enzyme, bacteriophage Cp-1, UniProt P15057 1-339, looked up)
# chain: B1 chain with W210A, A324D, A325N, A326P
# B3: Cpl-1 F218A (enzyme, bacteriophage Cp-1, UniProt P15057 1-339, looked up)
# chain: B1 chain with F218A, A324D, A325N, A326P
# B4: Cpl-1 F218A:Y238A (enzyme, bacteriophage Cp-1, UniProt P15057 1-339, looked up)
# chain: B1 chain with F218A, Y238A, A324D, A325N, A326P
# B5: Cpl-1 W210A:F218A (enzyme, bacteriophage Cp-1, UniProt P15057 1-339, looked up)
# chain: B1 chain with W210A, F218A, A324D, A325N, A326P
# B6: Cpl-1 KEP→AAA (enzyme, bacteriophage Cp-1, UniProt P15057 1-339, looked up)
# chain: B1 chain with A324D, A325N, A326P, K330A, E331A, P332A
# B7: Cpl-1 W210A:F218A:Y238A triple mutant (enzyme, bacteriophage Cp-1, UniProt P15057 1-339, looked up)
# chain: B1 chain with W210A, F218A, Y238A, A324D, A325N, A326P
# B8: Cpl-1 Y238A (enzyme, bacteriophage Cp-1, UniProt P15057 1-339, looked up)
# chain: B1 chain with Y238A, A324D, A325N, A326P
# Legend:
# [1] = target: SP-GH25 (uncultured virus); experiment: SEC
# [2] = target: SP-CHAP (uncultured virus); experiment: SEC
# [3] = target: Cpl-1 Δtail (bacteriophage Cp-1) (UniProt P15057); experiment: AUC
# Cpl-1 = Cpl-1 (Streptococcus phage Cp1, UniProt P15057); experiment: analytical size exclusion chromatography; assay type: binding
# [4] = target: SP-Amidase (uncultured virus); experiment: SEC
# SEC = target: the molecule itself; experiment: SEC
Molecule,stoichiometry N (SEC),also measured
SP-GH25 (enzyme),–,stoichiometry N [1]: 2
SP-CHAP (enzyme),–,stoichiometry N [2]: 2
Cpl-1 Δtail (from UniProt P15057 1-323) (domain or fragment),–,stoichiometry N [3]: 2
C[N+](C)(C)CCO [choline],–,Kd (Cpl-1): ~5 mM
SP-Amidase (enzyme),–,stoichiometry N [4]: 2
B1,2,–
B2,2,–
B3,2,–
B4,2,–
B5,2,–
B6,2,–
B7,2,–
B8,2,–
